The text below walks through data of patent EP2344531B1.

By IC50 is commonly meant the concentration needed to halve the response being measured. High values mean weaker potency in that assay, low ones greater potency in that assay.

Test [1] deals with VEGF (vascular endothelial growth factor) (UniProt P15692). The test is described as follows: BioVeris ECL competition assay with a labeled competitor; legend: +++ = IC50 about 2 - 10 µM.
For test [2], the target named is TGFβ1 (transforming growth factor β1) (UniProt P01137). Description: BioVeris ECL competition assay with a labeled competitor; legend: ++ = IC50 about 10 - 50 µM.
Chain of TGFβ1 (transforming growth factor β1) (P01137 279-390 limits assumed): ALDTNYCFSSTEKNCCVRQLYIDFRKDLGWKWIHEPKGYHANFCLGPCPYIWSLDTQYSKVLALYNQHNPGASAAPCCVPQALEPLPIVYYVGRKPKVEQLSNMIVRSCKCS
Test [3] deals with FGF-5 (fibroblast growth factor 5) (UniProt P12034). The test is described as follows: BioVeris ECL competition assay with a labeled competitor; negative control.
Chain of FGF-5 (fibroblast growth factor 5) (P12034 18-268 limits assumed): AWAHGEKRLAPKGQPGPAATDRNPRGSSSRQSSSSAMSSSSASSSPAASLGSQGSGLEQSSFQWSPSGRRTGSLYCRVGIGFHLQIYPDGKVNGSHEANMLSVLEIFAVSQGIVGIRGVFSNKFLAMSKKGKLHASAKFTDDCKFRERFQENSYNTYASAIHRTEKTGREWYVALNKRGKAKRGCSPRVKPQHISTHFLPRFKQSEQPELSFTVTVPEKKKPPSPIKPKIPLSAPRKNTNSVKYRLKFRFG
Test [4] addresses VEGF (vascular endothelial growth factor) (UniProt P15692). Described as above.

Chain of VEGF (vascular endothelial growth factor) (P15692 other isoform, or with tags, fused parts or gaps limits assumed): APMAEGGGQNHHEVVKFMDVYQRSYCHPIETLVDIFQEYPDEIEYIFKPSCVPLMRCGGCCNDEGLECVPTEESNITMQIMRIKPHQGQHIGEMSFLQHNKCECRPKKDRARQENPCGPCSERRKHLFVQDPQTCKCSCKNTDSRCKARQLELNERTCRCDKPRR

As to “BBIt with the VEGF-binding peptide VegKD (KYDLYWW) in the chymotrypsin loop (designed binder)”, the IC50 in test [1] is 2 to 10 µM. Still for that read-out and setting: the figure for “BBIt-VEGK (BBIt with the VEGF-binding peptide VegK KYYLYWW in the chymotrypsin loop) (designed binder)” is 2 to 10 µM; for “BBIt-VEGT (BBIt with the VEGF-binding peptide VegT TLWKSYW in the chymotrypsin loop) (designed binder)” it is 2 to 10 µM. Regarding “PEN3-Q-BBIt-TGF-A40L-F50N (BBIt-A40L-F50N with the TGFβ1 binding peptide PEN3 PENINVLP) (designed binder)”, in test [2], the 50% inhibitory concentration (IC50) is 10 to 50 µM.

Turning to “WTQ-BBIt-Q-TGF (BBIt-A13I-L29P-F50T-V52A with the TGFβ1 binding peptide WTQ WTQHIHN) (designed binder)”, the IC50 in test [2] lay within 10 to 50 µM. Regarding “sBBI (wild-type soybean Bowman-Birk Inhibitor) (from UniProt P01055 40-110)”, the IC50 in test [3] and in test [4] was greater than 250 µM in each case.
